Data on one molecule can be found in patent publication US20250223354A1 (BIOTHEUS, published 2025).

For test [1], the target named is Biotin-labeled mouse PVRIG protein with Mouse IgG2a Fc tag (mouse). Briefly: competition ELISA: biotin mouse PVRIG-mouse IgG2a Fc binding to coated mouse CD112-his. On the procedure: The coating solution in the ELISA plate was discarded, and the ELISA plate was washed three times with 1×PBST and was blocked with 5% BSA/PBS at 200 μL/well for 2 hours at room temperature. […] The SA-HRP dilution was discarded, the ELISA plate was washed three times with 1×PBST, ELISA Chromogen Solution was added at 100 μL/well and incubated for 1-3 minutes at room temperature, ELISA stopping solution was added at 50 μL/well and the absorbance values were read at 450 nm.
A general note: In an ELISA, binding on a coated surface is turned into a signal by an enzyme label.

For test [2], the target named is T1, human PVRIG-his protein (human, UniProt Q6DKI7 41-171, limits assumed).
T1 construct: not shown: his tag
T1 sequence: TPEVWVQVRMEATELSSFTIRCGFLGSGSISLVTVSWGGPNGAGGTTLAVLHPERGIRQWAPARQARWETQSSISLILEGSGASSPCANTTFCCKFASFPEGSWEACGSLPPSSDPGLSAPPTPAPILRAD
Briefly: BLI (ForteBio), antibody on AHQ sensor, 100 nM antigen, monovalent, 1:1 model. On the procedure: The antibody-loaded sensor was incubated in 100 nM target antigen to the plateau phase, and then the sensor was transferred to an analysis buffer and incubated for at least 2 minutes for measuring dissociation rate. The kinetic analysis was performed using a 1:1 binding model.
Background: In BLI a coated tip is dipped into the sample, and binding shifts an interference pattern.

Test [3] has as its target T2, human PVRIG protein with mouse IgG2a Fc tag (human; mouse, UniProt Q6DKI7 41-171, limits assumed).
T2 construct: Whole entry named; not shown: mouse IgG2a Fc tag
T2 sequence (looked up): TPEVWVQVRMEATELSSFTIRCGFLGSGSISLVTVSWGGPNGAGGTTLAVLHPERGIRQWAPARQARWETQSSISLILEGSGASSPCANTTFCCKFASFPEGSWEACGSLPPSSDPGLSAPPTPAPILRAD
Nature of the test: flow cytometry, competition: human PVRIG-mouse IgG2a Fc (1 ug/mL) binding to CHO-huCD112 cells. On the procedure:
Specifically, CHO cells overexpressing human CD112 (CHO-huCD112 cells) were generated by transfection of the pCHO1.0 vector (purchased from Invitrogen) with cDNA encoding human CD112 cloned into the multiple cloning site (MCS), followed by pressure screening. […] APC-conjugated goat anti-mouse IgG antibody diluted 100-fold with PBS was added at 100 μL/well, incubated at 4° C. for 30 minutes and washed twice with PBS. Cells were resuspended with PBS at 100 μL/well, and detected on a CytoFlex flow cytometer, and the corresponding MFI was calculated.
(In flow cytometry, cells or beads pass a laser one at a time.)

Test [4] has as its target T3, biotin-labeled TIGIT protein (co-binding ELISA) (human, UniProt Q495A1 22-141, biotin-labeled (site not stated)).
T3 construct: Whole entry named; also called human TIGIT protein
T3 sequence (looked up): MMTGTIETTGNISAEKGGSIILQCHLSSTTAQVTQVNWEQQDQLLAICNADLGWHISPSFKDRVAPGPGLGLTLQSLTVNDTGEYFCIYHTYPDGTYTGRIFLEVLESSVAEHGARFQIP
Nature of the test: co-binding (sandwich) ELISA: coated human PVRIG protein, antibody titrated, detected with biotin-labeled TIGIT protein 1 ug/mL and SA-HRP, absorbance 450 nm.

In test [5] the target is T4, cynomolgus monkey PVRIG-Fc protein (cynomolgus monkey, UniProt Q6DKI7 41-171 (human entry), limits assumed).
T4 construct: no signal peptide limits stated; Bivalent antigen; also called Cynomolgus PVRIG-hFc; not shown: human Fc (hFc)
T4 chain: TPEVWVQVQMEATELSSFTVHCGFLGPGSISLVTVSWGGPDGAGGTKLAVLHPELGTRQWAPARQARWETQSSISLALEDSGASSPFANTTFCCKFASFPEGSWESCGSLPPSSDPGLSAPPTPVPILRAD
Briefly: BLI (ForteBio), antibody on AHQ sensor, 100 nM Fc antigen, bivalent, 1:1 model. On the procedure: The antibody-loaded sensor was continued to be loaded in a high concentration of irrelevant intact antibody for 10 min, saturating the Fc-binding site on the AHQ sensor. The saturated sensor was incubated in 100 nM target antigen to the plateau phase, and then the sensor was transferred to an analysis buffer and incubated for at least 2 minutes for measuring dissociation rate. The kinetic analysis was performed using a 1:1 binding model.

The target of test [6] is T5, cynomolgus PVRIG overexpressed on CHO cells (cynomolgus, UniProt A0A2K5WVV8 1-322).
T5 construct: whole, on cells; also called CHO-cynoPVRIG cells
T5 sequence: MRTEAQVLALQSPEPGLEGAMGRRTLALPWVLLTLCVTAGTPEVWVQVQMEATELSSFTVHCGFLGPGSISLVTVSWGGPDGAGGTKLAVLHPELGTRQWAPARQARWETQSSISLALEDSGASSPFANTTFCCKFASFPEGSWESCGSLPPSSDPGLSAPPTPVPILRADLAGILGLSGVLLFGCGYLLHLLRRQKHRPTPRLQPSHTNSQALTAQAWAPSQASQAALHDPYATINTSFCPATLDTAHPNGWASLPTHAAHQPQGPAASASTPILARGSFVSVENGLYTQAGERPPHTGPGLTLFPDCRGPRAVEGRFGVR
Nature of the test: flow cytometry, CHO-cynoPVRIG cells. On the procedure:
(§1) The overexpressing cells were expanded and adjusted to an appropriate cell density, and added to a 96-well flow cytometry plate. After centrifugation, the cells were added with a gradiently diluted sample to be tested, and incubated at 4° C. for 30 minutes. The cells were washed twice with PBS, and added with a fluorescent secondary antibody correspondingly diluted to an appropriate concentration, then incubated at 4° C. for 30 minutes, and washed twice with PBS. Cells were resuspended with PBS, and detected on a CytoFlex flow cytometer, and the corresponding MFI was calculated. Graphpad software was used for graphical analysis to obtain EC₅₀ values.

In test [7] the target is T6, mouse PVRIG overexpressed on CHO cells (mouse, UniProt A0A1B0GS01 1-234).
T6 construct: also called CHO-muPVRIG cells
T6 sequence: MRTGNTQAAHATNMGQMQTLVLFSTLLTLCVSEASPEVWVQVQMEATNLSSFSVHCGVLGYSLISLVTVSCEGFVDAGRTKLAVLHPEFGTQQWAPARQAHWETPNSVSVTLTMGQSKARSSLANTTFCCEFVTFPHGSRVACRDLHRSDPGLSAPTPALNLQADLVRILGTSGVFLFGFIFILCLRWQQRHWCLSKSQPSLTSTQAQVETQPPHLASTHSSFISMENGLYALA
Nature of the test: flow cytometry, CHO-muPVRIG cells. On the procedure:
as §1

Test [8] addresses T7, human PVRIG expressed on cells (human, UniProt Q6DKI7 41-326).
T7 construct: whole, on cells; cDNA encoding human PVRIG in pCHO1.0 for CHO cells; also called CHO-huPVRIG cells
T7 sequence (looked up): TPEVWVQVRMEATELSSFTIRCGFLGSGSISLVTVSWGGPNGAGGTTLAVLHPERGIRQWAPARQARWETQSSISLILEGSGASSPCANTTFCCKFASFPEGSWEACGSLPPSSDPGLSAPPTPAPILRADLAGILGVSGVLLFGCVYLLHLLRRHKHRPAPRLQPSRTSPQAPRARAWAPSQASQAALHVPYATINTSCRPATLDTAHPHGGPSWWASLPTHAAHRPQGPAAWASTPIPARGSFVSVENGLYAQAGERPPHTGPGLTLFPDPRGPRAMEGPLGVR
Nature of the test: flow cytometry, CHO-huPVRIG cells. On the procedure: as §1

B1: anti-PVRIG monoclonal antibody ADI-56127 (antibody, V domains shown)
VH: QVQLVQSGAEVKKPGSSVKVSCKASGGTESVDAISWVRQAPGQGLEWMGDIIPFFDTDYAQKFQGRVTITADESTSTAYMELSSLRSEDTAVYYCAREGGTSWTHFFDLWGRGTLVTVSS
VL: not shown
As usually defined, the IC50 is the concentration at which inhibition is half-maximal. One may read the EC50 as the concentration that produces a half-maximal response. In the case of B1, the results for the IC50 in test [1] and in test [3] were 0.261 nM and 1.06 nM, respectively. The Kd is 0.144 nM in test [2] and 0.267 nM in test [5]. Moreover, in test [4], the binding result is reported as “no binding (tested: 100 nM)”. Also, the EC50 in test [6] was found to be 0.844 nM; in test [7] it was 3.35 nM; in test [8], 2.54 nM.
